Laboratory results published in patent publication US6030776.
pKi: −log10 of the molar value.

Legend:
[1] = molecular target: N-bromoacetyl-bradykinin (BrBK) (UniProt P01042); conditions: 5' guanosine monophosphorothioate (GMPS); 100-fold reduction in Km vs bulk 30N1 pool, 67-fold higher kcat, 6700-fold higher kcat/Km; thioether bond formation assayed on APM gel
[2] = molecular target: bradykinin (native BK peptide) (UniProt P01042); experiment: inhibition; conditions: 5' guanosine monophosphorothioate (GMPS); inhibition of reaction of 12.1 with BrBK; nearly identical to Km of the uninhibited reaction
[3] = molecular target: des-Arg9-bradykinin lacks carboxy-terminal Arg9 (UniProt P01042); experiment: inhibition; conditions: 5' guanosine monophosphorothioate (GMPS); inhibition of reaction of 12.1 with BrBK; about 18-fold weaker than BK

**Q.** Which results are given for “AGGCUUCGACAAACGCUCAAAGCUGUUGGCAGCGCUGGUGAAGGGAUGGC [reactant 12.1 GMPS-RNA]”?
**A.** fold reduction in Km vs starting pool [1]: 100 fold; pKi [2]: 3.85; pKi [3]: 2.59
